Data reported in patent publication US20070004636A1, “Method of degrading transcriptional factors of saccharometabolism-associated gene, method for inhibiting the degradation, and agent for inhibiting degradation and degradation inhibitor” (priority 2002, published 2007).

What was measured:
[1] = system: human HNF-4α; assay: in vitro protein degradation test of HNF-4α by calpain (Western blotting); format: biochemical; conditions: 1 hour at 37° C.
Description: Using the HNF-4α expression plasmid, in vitro synthesis of HNF-4α protein was conducted using the TNT T7 Quick Coupled Transcription/Translation System (Promega, Inc.). That is, the HNF-4α expression plasmid was mixed with TNT T7 Quick Master Mix, and then incubated for 1.5 hours at 30° C. in the presence of methionine to synthesize HNF-4α.
The in vitro protein degradation test was carried out by adding m-calpain extracted from rabbit muscle (Protease, Calcium-Activated Neutral (calpain), Sigma Chemical Co.) at a final concentration of 50 μg/mL to the synthesized HNF-4α, and then incubating for 1 hour at 37° C. in the presence of 200 mM Tris-HCl (pH 7.8)/1 mM dithiothreitol (DTT)/6 mM CaCl2. To conduct a degradation test in the absence of calcium, a test sample was prepared by adding 10 mM ethylenediaminetetraacetic acid (EDTA) instead of 6 mM CaCl2, and the sample was then incubated in a similar manner. The samples after incubation were added to an equal volume of 2× sodium dodecyl sulfate (SDS) sample buffer (4% SDS/125 mM Tris-HCl, pH 6.8/20% glycerol/0.01% bromphenol blue (BPB)/10% β-mercaptoethanol), heated for 5 minutes, and subjected to 10% SDS-PAGE for separation. Thereafter, Western blotting was carried out to detect HNF-4α using anti-HNF-4α antibody/HNF-4α (C-19) antibody (Santa Cruz Biotechnology, Inc.) and anti-Xpress antibody (Invitrogen, Inc.). An ECL Western blotting detection kit (Amersham pharmacia biotech) was used for the detection.
The final concentration of human m-calpain in the reaction system was 2.33 mg/mL as the protein concentration of the lysate of sf-9 cells that expressed human m-calpain. The final concentration of rat m-calpain in the reaction system was 59 units/mL. A degradation test was also conducted in the same manner without addition of calpain. Further, to test for degradation in the absence of calcium, a sample was prepared by adding 10 mM of EDTA instead of 6 mM CaCl2, and a degradation test was conducted with the sample in a similar manner. The samples after incubation were added to an equal volume of 2×SDS sample buffer, heated for 5 minutes, and subjected to 5-20% SDS-PAGE for separation. Thereafter, Western blotting was carried out to detect HNF-4α using anti-HNF-4α antibody/HNF-4α (C-19) antibody. An ECL Western blotting detection kit was used for the detection.
An in vitro protein degradation test was carried out by adding μ-calpain to HNF-4α at a final concentration of 50 units/mL, and incubating for 1 hour at 37° C. in the presence of 200 mM Tris-HCl (pH 7.8)/1 mM DTT/6 mM CaCl2. […]

[2] = system: human IPF-1; assay: in vitro protein degradation test of IPF-1 by calpain (Western blotting); format: biochemical; conditions: 1 hour at 37° C.
Description: Using the IPF-1 expression plasmid, synthesis of IPF-1 protein was carried out in vitro using the TNT T7 Quick Coupled Transcription/Translation System. That is, the IPF-1 expression plasmid was mixed with TNT T7 Quick Master Mix, and then incubated for 1.5 hours at 30° C. in the presence of methionine to synthesize IPF-1.
Protein degradation tests were carried out in vitro by adding μ-calpain or m-calpain to IPF-1, and incubating for 1 hour at 37° C. in the presence of 200 mM Tris-HCl (pH 7.8)/1 mM DTT/6 mM CaCl2. The final concentrations of each calpain in the reaction systems were as follows: 50 units/mL of human μ-calpain; 50 μg/mL of rabbit m-calpain as a protein concentration, and 59 units/mL of rat m-calpain. For a control experiment, IPF-1 was incubated without addition of calpain in the same manner in the presence of calcium. Further, to test for protein degradation in the absence of calcium, a sample was prepared by adding 10 mM of EDTA instead of 6 mM of CaCl2, and incubated in the same manner. The samples after incubation were added to an equal volume of 2×SDS sample buffer, heated for 5 minutes, and subjected to 5-20% SDS-PAGE for separation. Thereafter, Western blotting was carried out to detect IPF-1 using anti-Xpress antibody and anti-IPF1 (PDX-1) antibody/N-18 (Santa Cruz Biotechnology, Inc.). The ECL Western blotting detection kit was used for conducting the detection.
In-vitro protein degradation tests were carried out in the same manner as Example 10, but the lysate of sf-9 cells that coexpressed m-calpain with calpain small subunit 1 was used as m-calpain. The final concentration of the lysate of sf-9 cells that expressed these proteins in the reaction system was 2.33 mg/mL as a protein concentration. The final concentration of rat m-calpain in the reaction system was 59 units/mL. Detection of IPF-1 was performed in the same manner as Example 10, but only anti-IPF-1 antibody/N-18 was used.

[3] = in the absence of calcium (10 mM EDTA instead of CaCl2)
[4] = in the presence of calcium (6 mM CaCl2), Western blotting

B1: human m-calpain: lysate of sf-9 insect cells coexpressing human m-calpain with calpain small subunit 1; FLAG-tagged, expressed in HEK293T cells, in Example 3 (protein, UniProt P17655 20-700; P04632 1-268, looked up)
Calpain-2 catalytic subunit: SHDRAIKYLNQDYEALRNECLEAGTLFQDPSFPAIPSALGFKELGPYSSKTRGIEWKRPTEICADPQFIIGGATRTDICQGALGDCWLLAAIASLTLNEEILARVVPLNQSFQENYAGIFHFQFWQYGEWVEVVVDDRLPTKDGELLFVHSAEGSEFWSALLEKAYAKINGCYEALSGGATTEGFEDFTGGIAEWYELKKPPPNLFKIIQKALQKGSLLGCSIDITSAADSEAITFQKLVKGHAYSVTGAEEVESNGSLQKLIRIRNPWGEVEWTGRWNDNCPSWNTIDPEERERLTRRHEDGEFWMSFSDFLRHYSRLEICNLTPDTLTSDTYKKWKLTKMDGNWRRGSTAGGCRNYPNTFWMNPQYLIKLEEEDEDEEDGESGCTFLVGLIQKHRRRQRKMGEDMHTIGFGIYEVPEELSGQTNIHLSKNFFLTNRARERSDTFINLREVLNRFKLPPGEYILVPSTFEPNKDGDFCIRVFSEKKADYQAVDDEIEANLEEFDISEDDIDDGFRRLFAQLAGEDAEISAFELQTILRRVLAKRQDIKSDGFSIETCKIMVDMLDSDGSGKLGLKEFYILWTKIQKYQKIYREIDVDRSGTMNSYEMRKALEEAGFKMPCQLHQVIVARFADDQLIIDFDNFVRCLVRLETLFKIFKQLDPENTGTIELDLISWLCFSVL
Calpain small subunit 1: MFLVNSFLKGGGGGGGGGGGLGGGLGNVLGGLISGAGGGGGGGGGGGGGGGGGGGGTAMRILGGVISAISEAAAQYNPEPPPPRTHYSNIEANESEEVRQFRRLFAQLAGDDMEVSATELMNILNKVVTRHPDLKTDGFGIDTCRSMVAVMDSDTTGKLGFEEFKYLWNNIKRWQAIYKQFDTDRSGTICSSELPGAFEAAGFHLNEHLYNMIIRRYSDESGNMDFDNFISCLVRLDAMFRAFKSLDKDGTGQIQVNIQEWLQLTMYS
modifications: FLAG tag
[1]; [3]
  degradation of HNF-4α: not observed
[1]; [4]
  degradation of HNF-4α: observed
[2]; [3]
  degradation of IPF-1: not observed
[2]; [4]
  degradation of IPF-1: observed
